Publication PMC6047364, “A Novel PLP-Dependent Alanine/Serine Racemase From the Hyperthermophilic Archaeon Pyrococcus horikoshii OT-3” (Frontiers in Microbiology, 2018)

What was measured:
PH1501 = molecular target: T1, PH1501 (Pyrococcus horikoshii, UniProt O59170); assay: UPLC detection of D-amino acid; format: biochemical; settings: partially purified (heat-treated) enzyme; 100 mM HEPES pH 7.0, 10 mM L-amino acid, 0.04 mM PLP, 80°C, 60 min; slight peak
T1 construct: full-length, pET11a (NdeI/BamHI), no tag described, E. coli BL21 (DE3), partially purified by heat treatment at 90°C; about 50 kDa on SDS-PAGE
T1 sequence (O59170 1-438): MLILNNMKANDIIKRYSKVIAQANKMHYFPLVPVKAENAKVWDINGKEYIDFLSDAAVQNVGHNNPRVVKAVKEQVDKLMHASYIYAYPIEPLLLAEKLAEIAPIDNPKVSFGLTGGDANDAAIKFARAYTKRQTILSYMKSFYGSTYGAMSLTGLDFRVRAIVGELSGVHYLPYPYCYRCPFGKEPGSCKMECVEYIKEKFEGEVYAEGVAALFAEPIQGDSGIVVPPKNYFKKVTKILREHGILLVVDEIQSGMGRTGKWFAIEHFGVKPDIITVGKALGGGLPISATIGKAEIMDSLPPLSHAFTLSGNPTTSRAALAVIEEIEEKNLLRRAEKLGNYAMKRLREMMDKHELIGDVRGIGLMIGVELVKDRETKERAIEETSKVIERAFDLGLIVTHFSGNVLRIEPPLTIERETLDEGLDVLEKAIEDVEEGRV

[1] = molecular target: T2, PH0782; Ala/Ser racemase (ASR) (Pyrococcus horikoshii, UniProt O58478); assay: apo-enzyme reactivation, racemase activity; format: biochemical; settings: apo-enzyme prepared at 80°C for 18 h in assay mixture with L-Ala; covalent (Schiff base, K291 suggested)
T2 construct: full-length, pET11a (NdeI/BglII), no tag described, E. coli BL21 (DE3), purified; hexamer about 300 kDa; fold type I PLP enzyme

purified protein [2] = substrate: C[C@@H](N)C(=O)O; assay: purified protein; settings: 100 mM HEPES pH 7.0, 0.04 mM PLP, 80°C, racemization to L-Ala, apparent
purified protein [3] = substrate: N[C@@H](CO)C(=O)O; assay: purified protein; settings: 100 mM HEPES pH 7.0, 0.04 mM PLP, 80°C, racemization to D-Ser, apparent
purified protein [4] = substrate: C[C@H](N)C(=O)O; assay: purified protein; settings: 100 mM HEPES pH 7.0, 0.04 mM PLP, 80°C, racemization to D-Ala, apparent
purified protein [5] = substrate: N[C@H](CO)C(=O)O; assay: purified protein; settings: 100 mM HEPES pH 7.0, 0.04 mM PLP, 80°C, racemization to L-Ser, apparent
[6] = molecular target: the molecule itself; assay: SEC; gel filtration on HiLoad 26/60 Superdex 200 with molecular mass standards (thyroglobulin, gamma-globulin, ovalbumin, myoglobin); native mass about 300 kDa against a subunit of 50.5 kDa (calculated)

Molecule: N[C@@H](Cc1ccccc1)C(=O)O [Phe]
- UPLC detection of D-amino acid (PH1501): Slight peaks for the D-forms of Met, Phe, and Leu were detected

Molecule: CSCC[C@H](N)C(=O)O [Met]
- UPLC detection of D-amino acid (PH1501): Slight peaks for the D-forms of Met, Phe, and Leu were detected

Molecule: Cc1ncc(COP(=O)(O)O)c(C=O)c1O [pyridoxal 5′-phosphate]
- apo-enzyme reactivation, racemase activity [1]: apo-enzyme exhibited no activity in the absence of PLP and recovered its activity by addition

B1: PH0782; Ala/Ser racemase (ASR) (Pyrococcus horikoshii OT3) (protein)
chain: MEYPKIVVKPPGPRAKELIEREKKVLSTGIGVKLFPLVPKRGFGPFIEDVDGNVFIDFLAGAAAASTGYAHPKLVKAVKEQVELIQHSMIGYTHSERAIRVAEKLVEISPIENSKVIFGLSGSDAVDMAIKVSKFSTRRPWILAFIGAYHGQTLGATSVASFQVSQKRGYSPLMPNVFWIPYPNPFRNIWGINGYEEPDELINRVLDYLEYYVFSHVVPPDEVAALFAEPIQGDAGIVVPPENFFKELKKLLEEYGILLVMDEVQTGIGRTGKWFASEWFNVKPDMIIFGKGVASGMGLSGVIGRKEIMDITSGSALLTPAANPVISAAAEATLEIIEEENLLKNALEVGEFIMGRLKEIKERFEIIGDVRGKGLMIGVEIVKENGRPDPEMTGKICWRAFELGLILPSYGMFGNVIRITPPLVLTKEVAEKALEIIERAIKDTLTGKVERKVVTWH
- Km (purified protein [2]): 5.5 ± 0.59 mM
- Vmax (purified protein [2]): 49.5 µmol/min/mg
- kcat/Km (purified protein [2]): 7580 M⁻¹ s⁻¹
- Km (purified protein [3]): 4.5 ± 0.32 mM
- Vmax (purified protein [3]): 31.4 µmol/min/mg
- kcat/Km (purified protein [3]): 5870 M⁻¹ s⁻¹
- Km (purified protein [4]): 3.3 ± 0.22 mM
- Vmax (purified protein [4]): 28.2 µmol/min/mg
- kcat/Km (purified protein [4]): 7190 M⁻¹ s⁻¹
- Km (purified protein [5]): 5.9 ± 0.40 mM
- Vmax (purified protein [5]): 41.2 µmol/min/mg
- kcat/Km (purified protein [5]): 5880 M⁻¹ s⁻¹

B2: Ala/Ser racemase (ASR), the protein encoded by PH0782, from Pyrococcus horikoshii OT-3 (enzyme, UniProt O58478 1-474, looked up)
chain: MPFLPFSYYPFSLEVILMEYPKIVVKPPGPRAKELIEREKKVLSTGIGVKLFPLVPKRGFGPFIEDVDGNVFIDFLAGAAAASTGYAHPKLVKAVKEQVELIQHSMIGYTHSERAIRVAEKLVEISPIENSKVIFGLSGSDAVDMAIKVSKFSTRRPWILAFIGAYHGQTLGATSVASFQVSQKRGYSPLMPNVFWIPYPNPFRNIWGINGYEEPDELINRVLDYLEYYVFSHVVPPDEVAALFAEPIQGDAGIVVPPENFFKELKKLLEEYGILLVMDEVQTGIGRTGKWFASEWFNVKPDMIIFGKGVASGMGLSGVIGRKEIMDITSGSALLTPAANPVISAAAEATLEIIEEENLLKNALEVGEFIMGRLKEIKERFEIIGDVRGKGLMIGVEIVKENGRPDPEMTGKICWRAFELGLILPSYGMFGNVIRITPPLVLTKEVAEKALEIIERAIKDTLTGKVERKVVTWH
notes: Ala/Ser racemase encoded by ORF PH0782 of Pyrococcus horikoshii OT-3 (annotated as a putative GABA aminotransferase); amplified from genomic DNA with primers from the initiation codon to the termination codon; calculated subunit mass 50.5 kDa; PLP-dependent enzyme; also called BAR homolog; source: E. coli BL21 (DE3), pET11a/PH0782, purified (heat treatment, butyl-Toyopearl, DEAE-cellurofine)
- stoichiometry N [6]: 6
